The data set “NMR titration” concerns the molecule itself. The data set is described as follows: NMR titration.
Data set [1] deals with T1, HET-S(1–227) (Podospora anserina), B2ACC7.
T1 chain: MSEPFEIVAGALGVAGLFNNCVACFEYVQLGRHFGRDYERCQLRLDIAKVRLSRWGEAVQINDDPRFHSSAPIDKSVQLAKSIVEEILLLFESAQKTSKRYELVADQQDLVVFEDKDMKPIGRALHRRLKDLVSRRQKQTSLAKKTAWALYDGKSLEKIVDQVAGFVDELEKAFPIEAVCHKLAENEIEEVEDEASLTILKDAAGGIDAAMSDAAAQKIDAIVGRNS
The data set is described as follows: NMR titration. The conditions noted are these: remark: other sources report otherwise.

Data set [2] addresses T1, HET-S(1–227) (Podospora anserina), …. The data set is described as follows: […]. The conditions noted are these: remark: other sources report otherwise.

B1: HET-s(1–227) (domain or fragment, Podospora anserina, UniProt Q03689 1-227, looked up)
chain: MSEPFGIVAGALNVAGLFNNCVDCFEYVQLGRPFGRDYERCQLRLDIAKARLSRWGEAVKINDDPRFHSDAPTDKSVQLAKSIVEEILLLFESAQKTSKRYELVADQQDLVVFEDKDMKPIGRALHRRLNDLVSRRQKQTSLAKKTAWALYDGKSLEKIVDQVARFVDELEKAFPIEAVCHKLAEIEIEEVEDEASLTILKDAAGGIDAAMSDAAAQKIDAIVGRNS
A word on the Kd: it is the concentration at which binding is half-saturated. The low end stands for a tighter complex, the high end for a looser complex. B1 yielded a Kd in the data set “NMR titration” of 320 ± 37 µM.

B2: HET-S(1–227), B2ACC7 1-227 (domain or fragment)
chain: T1 chain
As a reminder, the stoichiometry N is the number of molecules, sites or subunits per partner or assembly. The molecule B2 yielded a Kd in data set [1] of 78 µM. The stoichiometry N in data set [2] was 2.

The record behind these values is publication PMC3507513 (Molecular cell, 2010).
